Assay results published in patent publication US20080293922A1.

Target: β-amyloid peptide Aβ1-40 (Homo sapiens (Human)) (UniProt P05067)
Test: Dissociation of 125I-VEGF165 from resuspended Aβ1-40/VEGF co-aggregate, radioactivity in supernatant

Vascular endothelial growth factor VEGF165, sequence (P15692 other isoform, or with tags, fused parts or gaps): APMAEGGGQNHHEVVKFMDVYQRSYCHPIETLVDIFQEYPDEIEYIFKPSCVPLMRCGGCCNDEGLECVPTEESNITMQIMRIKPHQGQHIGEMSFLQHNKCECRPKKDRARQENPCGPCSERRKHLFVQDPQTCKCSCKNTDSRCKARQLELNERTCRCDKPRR

With “Vascular endothelial growth factor VEGF165 (from UniProt P15692 207-395) (ligand)” the percent of VEGF released from the Aβ/VEGF complex after 3 days was less than 1.5%.
